Patent US20260167699A1 (Chugai, published 2026)
Numbering of substitutions follows the chain as printed.

T1: FcγRIIa(R) extracellular domain, His-tagged (human, UniProt P12318 34-217)
T1 construct: extracellular domain; also called 2aR
T1 sequence: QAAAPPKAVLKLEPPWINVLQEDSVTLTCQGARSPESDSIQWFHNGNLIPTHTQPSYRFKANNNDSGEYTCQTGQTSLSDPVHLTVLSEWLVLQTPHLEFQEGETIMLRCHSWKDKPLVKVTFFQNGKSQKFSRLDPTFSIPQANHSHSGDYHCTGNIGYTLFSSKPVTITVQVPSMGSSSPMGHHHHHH

T2: FcγRIIa(H) extracellular domain, His-tagged (human, UniProt P12318 34-217)
T2 construct: extracellular domain; also called 2aH
T2 sequence: T1 sequence with R134H

T3: FcγRIIb extracellular domain, His-tagged (human, UniProt P31994 43-217)
T3 construct: extracellular domain; also called 2b
T3 sequence: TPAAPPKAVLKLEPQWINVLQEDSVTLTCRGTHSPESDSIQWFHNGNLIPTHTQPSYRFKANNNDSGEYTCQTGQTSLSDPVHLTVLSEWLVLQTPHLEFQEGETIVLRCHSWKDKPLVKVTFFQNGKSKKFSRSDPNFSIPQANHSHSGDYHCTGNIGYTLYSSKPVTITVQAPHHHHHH

B1: GpH7-A5/GpH7-B3 variant H268_14T/GpL16-k0 (antibody, human IgG1, kappa)
heavy 1: not shown
heavy 2: not shown
light: DIVMTQSPLSLPVTPGEPASISCQASESLVHSNRNTYLHWYLQKPGQSPQLLIYKVSNRFSGVPDRFSGSGSGTDFTLKISRVEAEDVGVYYCSQNTHVPPTFGQGTKVEIERTVAAPSVFIFPPSDEQLKSGTASVVCLLNNFYPREAKVQWKVDNALQSGNSQESVTEQDSKDSTYSLSSTLTLSKADYEKHKVYACEVTHQGLSSPVTKSFNRGEC
B2: GpH7-A5/GpH7-B3 variant G236_10E/GpL16-k0 (antibody, human IgG1, kappa)
heavy 1: not shown
heavy 2: not shown
light: B1 light
B3: GpH7-A5/GpH7-B3 variant E269_02A/GpL16-k0 (antibody, human IgG1, kappa)
heavy 1: not shown
heavy 2: not shown
light: B1 light
B4: GpH7-A5/GpH7-B3 variant D270_14T/GpL16-k0 (antibody, human IgG1, kappa)
heavy 1: not shown
heavy 2: not shown
light: B1 light
B5: GpH7-A5/GpH7-B3 variant G236_09D/GpL16-k0 (antibody, human IgG1, kappa)
heavy 1: not shown
heavy 2: not shown
light: B1 light
B6: GpH7-A5/GpH7-B3 variant G236_02A/GpL16-k0 (antibody, human IgG1, kappa)
heavy 1: not shown
heavy 2: not shown
light: B1 light
B7: GpH7-A5/GpH7-B3 variant E269_09D/GpL16-k0 (antibody, human IgG1, kappa)
heavy 1: not shown
heavy 2: not shown
light: B1 light
B8: GpH7-A5/GpH7-B3 variant E269_01G/GpL16-k0 (antibody, human IgG1, kappa)
heavy 1: not shown
heavy 2: not shown
light: B1 light
B9: GpH7-A5/GpH7-B3 variant E269_13S/GpL16-k0 (antibody, human IgG1, kappa)
heavy 1: not shown
heavy 2: not shown
light: B1 light
B10: GpH7-A5/GpH7-B3 variant D270_10E/GpL16-k0 (antibody, human IgG1, kappa)
heavy 1: not shown
heavy 2: not shown
light: B1 light
B11: GpH7-A5/GpH7-B3 variant E269_14T/GpL16-k0 (antibody, human IgG1, kappa)
heavy 1: not shown
heavy 2: not shown
light: B1 light
B12: GpH7-A5/GpH7-B3 variant D270_08L/GpL16-k0 (antibody, human IgG1, kappa)
heavy 1: not shown
heavy 2: not shown
light: B1 light
B13: GpH7-A5/GpH7-B3 variant Y300_16H/GpL16-k0 (antibody, human IgG1, kappa)
heavy 1: not shown
heavy 2: not shown
light: B1 light
notes: He Ab; copies: 1 + 1 + 2
B14: GpH7-A5/GpH7-B3 variant Y300_13S/GpL16-k0 (antibody, human IgG1, kappa)
heavy 1: not shown
heavy 2: not shown
light: B1 light
notes: He Ab; copies: 1 + 1 + 2
B15: GpH7-A5/GpH7-B3 variant Y300_18N/GpL16-k0 (antibody, human IgG1, kappa)
heavy 1: not shown
heavy 2: not shown
light: B1 light
notes: He Ab; copies: 1 + 1 + 2
B16: GpH7-A5/GpH7-B3 variant Y296_11K/GpL16-k0 (antibody, human IgG1, kappa)
heavy 1: not shown
heavy 2: not shown
light: B1 light
notes: He Ab; copies: 1 + 1 + 2
B17: GpH7-A5/GpH7-B3 variant Y296_12R/GpL16-k0 (antibody, human IgG1, kappa)
heavy 1: not shown
heavy 2: not shown
light: B1 light
notes: He Ab; copies: 1 + 1 + 2
B18: GpH7-A5/GpH7-B3 variant Y296_04F/GpL16-k0 (antibody, human IgG1, kappa)
heavy 1: not shown
heavy 2: not shown
light: B1 light
notes: He Ab; copies: 1 + 1 + 2
B19: GpH7-A5/GpH7-B3 variant Y296_09D/GpL16-k0 (antibody, human IgG1, kappa)
heavy 1: not shown
heavy 2: not shown
light: B1 light
notes: He Ab; copies: 1 + 1 + 2
B20: GpH7-A5/GpH7-B3 variant Y300_19Q/GpL16-k0 (antibody, human IgG1, kappa)
heavy 1: not shown
heavy 2: not shown
light: B1 light
notes: He Ab; copies: 1 + 1 + 2
B21: GpH7-A5/GpH7-B3 variant Y296_06M/GpL16-k0 (antibody, human IgG1, kappa)
heavy 1: not shown
heavy 2: not shown
light: B1 light
notes: He Ab; copies: 1 + 1 + 2
B22: GpH7-A5/GpH7-B3 variant Y296_14T/GpL16-k0 (antibody, human IgG1, kappa)
heavy 1: not shown
heavy 2: not shown
light: B1 light
notes: He Ab; copies: 1 + 1 + 2
B23: GpH7-A5/GpH7-B3 variant Y296_10E/GpL16-k0 (antibody, human IgG1, kappa)
heavy 1: not shown
heavy 2: not shown
light: B1 light
notes: He Ab; copies: 1 + 1 + 2
B24: GpH7-A5/GpH7-B3 variant Y300_07I/GpL16-k0 (antibody, human IgG1, kappa)
heavy 1: not shown
heavy 2: not shown
light: B1 light
notes: He Ab; copies: 1 + 1 + 2
B25: GpH7-A5/GpH7-B3 variant Y296_07I/GpL16-k0 (antibody, human IgG1, kappa)
heavy 1: not shown
heavy 2: not shown
light: B1 light
notes: He Ab; copies: 1 + 1 + 2
B26: GpH7-A5/GpH7-B3 variant Y296_13S/GpL16-k0 (antibody, human IgG1, kappa)
heavy 1: not shown
heavy 2: not shown
light: B1 light
notes: He Ab; copies: 1 + 1 + 2
B27: GpH7-A5/GpH7-B3 variant Y296_20W/GpL16-k0 (antibody, human IgG1, kappa)
heavy 1: not shown
heavy 2: not shown
light: B1 light
notes: He Ab; copies: 1 + 1 + 2
B28: GpH7-A5/GpH7-B3 variant Y300_04F/GpL16-k0 (antibody, human IgG1, kappa)
heavy 1: not shown
heavy 2: not shown
light: B1 light
notes: He Ab; copies: 1 + 1 + 2
B29: GpH7-A5/GpH7-B3 variant Y300_11K/GpL16-k0 (antibody, human IgG1, kappa)
heavy 1: not shown
heavy 2: not shown
light: B1 light
notes: He Ab; copies: 1 + 1 + 2
B30: GpH7-A5/GpH7-B3 variant Y296_19Q/GpL16-k0 (antibody, human IgG1, kappa)
heavy 1: not shown
heavy 2: not shown
light: B1 light
notes: He Ab; copies: 1 + 1 + 2
B31: GpH7-A5/GpH7-B3 variant Y300_01G/GpL16-k0 (antibody, human IgG1, kappa)
heavy 1: not shown
heavy 2: not shown
light: B1 light
notes: He Ab; copies: 1 + 1 + 2
B32: GpH7-A5/GpH7-B3 variant Y296_18N/GpL16-k0 (antibody, human IgG1, kappa)
heavy 1: not shown
heavy 2: not shown
light: B1 light
notes: He Ab; copies: 1 + 1 + 2
B33: GpH7-A5/GpH7-B3 variant Y296_08L/GpL16-k0 (antibody, human IgG1, kappa)
heavy 1: not shown
heavy 2: not shown
light: B1 light
notes: He Ab; copies: 1 + 1 + 2
B34: GpH7-A5/GpH7-B3 variant Y296_16H/GpL16-k0 (antibody, human IgG1, kappa)
heavy 1: not shown
heavy 2: not shown
light: B1 light
notes: He Ab; copies: 1 + 1 + 2
B35: GpH7-A5/GpH7-B3 variant Y300_10E/GpL16-k0 (antibody, human IgG1, kappa)
heavy 1: not shown
heavy 2: not shown
light: B1 light
notes: He Ab; copies: 1 + 1 + 2
B36: GpH7-A5/GpH7-B3 variant Y300_02A/GpL16-k0 (antibody, human IgG1, kappa)
heavy 1: not shown
heavy 2: not shown
light: B1 light
notes: He Ab; copies: 1 + 1 + 2
B37: GpH7-A5/GpH7-B3 variant Y300_06M/GpL16-k0 (antibody, human IgG1, kappa)
heavy 1: not shown
heavy 2: not shown
light: B1 light
notes: He Ab; copies: 1 + 1 + 2
B38: GpH7-A5/GpH7-B3 variant Y300_14T/GpL16-k0 (antibody, human IgG1, kappa)
heavy 1: not shown
heavy 2: not shown
light: B1 light
notes: He Ab; copies: 1 + 1 + 2
B39: GpH7-A5/GpH7-B3 variant Y300_20W/GpL16-k0 (antibody, human IgG1, kappa)
heavy 1: not shown
heavy 2: not shown
light: B1 light
notes: He Ab; copies: 1 + 1 + 2
B40: GpH7-A5/GpH7-B3 variant Y300_09D/GpL16-k0 (antibody, human IgG1, kappa)
heavy 1: not shown
heavy 2: not shown
light: B1 light
notes: He Ab; copies: 1 + 1 + 2
B41: GpH7-A5/GpH7-B3 variant Y300_03V/GpL16-k0 (antibody, human IgG1, kappa)
heavy 1: not shown
heavy 2: not shown
light: B1 light
notes: He Ab; copies: 1 + 1 + 2
B42: GpH7-A5/GpH7-B3 variant Y300_08L/GpL16-k0 (antibody, human IgG1, kappa)
heavy 1: not shown
heavy 2: not shown
light: B1 light
notes: He Ab; copies: 1 + 1 + 2

target: T1, FcγRIIa(R) extracellular domain, …; experiment: SPR, vs GpH7-A5/GpH7-B3/GpL16-k0 =100

He/Con 2aR	Binder
100 % of control	B1
124 % of control	B2
70.2 % of control	B3
72.2 % of control	B4
105 % of control	B5
145 % of control	B6
113 % of control	B7
70.3 % of control	B8
65.8 % of control	B9
85.7 % of control	B10
71 % of control	B11
62.8 % of control	B12

target: T2, FcγRIIa(H) extracellular domain, …; experiment: SPR, vs GpH7-A5/GpH7-B3/GpL16-k0 =100

He/Con 2aH	Binder
93.5 % of control	B1
116 % of control	B2
78.7 % of control	B3
81.3 % of control	B4
93.5 % of control	B5
145 % of control	B6
105 % of control	B7
72.3 % of control	B8
70.7 % of control	B9
111 % of control	B10
70.3 % of control	B11
81.8 % of control	B12

target: T4, FcγRIIIa extracellular domain, His-tagged (human, UniProt P08637 17-208); experiment: SPR, vs GpH7-A5/GpH7-B3/GpL16-k0 =100
T4 construct: extracellular domain; also called 3a
T4 sequence (P08637 other isoform, or with tags, fused parts or gaps): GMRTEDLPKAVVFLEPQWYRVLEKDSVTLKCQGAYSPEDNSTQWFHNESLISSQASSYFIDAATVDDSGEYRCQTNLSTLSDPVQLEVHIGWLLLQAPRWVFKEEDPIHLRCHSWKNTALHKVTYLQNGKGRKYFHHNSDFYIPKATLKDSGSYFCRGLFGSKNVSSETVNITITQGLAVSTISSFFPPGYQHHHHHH

He/Con 3a	Binder
90.3 % of control	B1
65.8 % of control	B2
68 % of control	B3
55.4 % of control	B4
66.2 % of control	B5
77 % of control	B6
106 % of control	B7
61.6 % of control	B8
62.1 % of control	B9
112 % of control	B10
59.7 % of control	B11
65.1 % of control	B12

target: T5, FcγRIa extracellular domain, His-tagged (human, UniProt P12314 16-292); experiment: SPR, vs GpH7-A5/GpH7-B3/GpL16-k0 =100
T5 construct: extracellular domain; also called 1a
T5 sequence (P12314 other isoform, or with tags, fused parts or gaps): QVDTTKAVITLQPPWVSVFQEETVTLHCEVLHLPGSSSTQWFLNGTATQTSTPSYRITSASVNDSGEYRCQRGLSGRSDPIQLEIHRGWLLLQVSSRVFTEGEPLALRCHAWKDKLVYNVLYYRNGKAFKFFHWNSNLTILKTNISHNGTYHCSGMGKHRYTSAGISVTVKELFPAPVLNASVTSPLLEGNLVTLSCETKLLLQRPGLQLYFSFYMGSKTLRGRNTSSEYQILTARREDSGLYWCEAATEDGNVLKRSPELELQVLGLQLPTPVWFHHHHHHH

He/Con 1a	Binder
108 % of control	B1
92.6 % of control	B2
101 % of control	B3
89.5 % of control	B4
95.5 % of control	B5
99.1 % of control	B6
103 % of control	B7
101 % of control	B8
99.8 % of control	B9
104 % of control	B10
102 % of control	B11
93.2 % of control	B12

target: T3, FcγRIIb extracellular domain, His-tagged; experiment: SPR, vs GpH7-A5/GpH7-B3/GpL16-k0 =100

He/Con 2b	Binder
90.3 % of control	B1
115 % of control	B2
52.4 % of control	B3
54.8 % of control	B4
174 % of control	B5
101 % of control	B6
110 % of control	B7
54.1 % of control	B8
50.2 % of control	B9
72.5 % of control	B10
53.2 % of control	B11
50.8 % of control	B12

target: T6, FcγRIIIa extracellular domain, C-terminal His tag (human, UniProt P08637 17-208); experiment: SPR, binding activity relative to GpH7-A5/GpH7-B3/GpL16-k0 (=100)
T6 construct: extracellular domain; also called 3a
T6 sequence (P08637 other isoform, or with tags, fused parts or gaps): as the sequence (P08637 other isoform, or with tags, fused parts or gaps) above

He/Con 3a [%]	Binder
102	B13
80.3	B14
96	B15
53.3	B16
66.5	B17
79.5	B18
89	B19
105	B20
74.6	B21
60.7	B22
76.8	B23
103	B24
75.8	B25
58.1	B26
127	B27
100	B28
63.7	B29
71.4	B30
88.6	B31
67.9	B32
72.4	B33
69.1	B34
113	B35
88.1	B36
106	B37
92.8	B38
101	B39
104	B40
83.8	B41
114	B42
